Measurements published in publication doi:10.1101/2022.10.17.512494.

Molecular target: recombinant VE-cadherin-Fc (UniProt P55284)
Assay: atomic force microscopy

Substance: recombinant VE-cadherin-Fc (from UniProt P55284 46-599) (Fc fusion)
- binding activity (binding probability): 61%
